Laboratory results: the supplement of paper PMC9732359
± gives the uncertainty stated by the source.

Assay: protein stability index of a GFP-peptide fusion (yeast GPS) (PSI 1-4); higher = more stable; sorted into four equal gates, so the index is relative within each strain
Outline: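 For each peptide, the protein stability index sums the read frequency in every gate after multiplying it by the gate number. Read frequencies came from plasmids that were PCR-amplified from each gate and Illumina-sequenced, with reads assigned to strains by barcodes. The gates were four equal bins of GFP/Cherry fluorescence ratio applied to mid-log yeast in leucine-free medium carrying a pooled library of tiled 17-residue yeast protein peptides fused downstream of GFP on a Cherry-expressing plasmid.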

Sequence | protein stability index (doa10∆) | protein stability index (pdr5∆) | protein stability index (san1∆) | protein stability index (ubr1∆)
EPIRFLPNQFPLKIHRT [SWI1] | 1.66 ± 0.06 | 1.81 ± 0.075 | 1.59 ± 0.12 | 1.73 ± 0.07
NRQVMHKMGVERSSKRL [SIR3] | 3.23 ± 0.17 | 3.49 ± 0.14 | 3.46 ± 0.14 | 3.34 ± 0.19
SVKSARTSTRGRGRGRG [SNF2] | 3.38 ± 0.065 | 3.35 ± 0.064 | 3.19 ± 0.046 | 3.32 ± 0.041
GYFIINGSEKVLIAQER [RPB2] | 3.14 ± 0.21 | 2.94 ± 0.17 | 3.16 ± 0.18 | 2.15 ± 0.26
TLPSVGHTLINNYKDLL [RPP0] | – | 3.34 ± 0.21 | – | –
GELFLNESWKSSFEKFN [SRP72] | 3.23 ± 0.23 | 3.22 ± 0.11 | 2.79 ± 0.12 | 3.24 ± 0.073
MIATNVAARGLDIPNVS [PRP28] | 2.58 ± 0.17 | – | 2.2 ± 0.16 | –
ESEYREFESELKNVEET [ESC2] | 3.54 ± 0.25 | 3.47 ± 0.2 | 3.2 ± 0.18 | 3.31 ± 0.15
PELGDKFSSRHGQKGVC [RET1] | 3.26 ± 0.12 | 3.42 ± 0.12 | 2.99 ± 0.14 | 3.09 ± 0.1
ERNAAYQKEYETAERNI [RPL7A] | 2.71 ± 0.12 | 2.61 ± 0.1 | 2.48 ± 0.095 | 2.62 ± 0.18
YGLIRGLKFASFIFQYY [PRP8] | 2.23 ± 0.11 | 2.52 ± 0.13 | 2.02 ± 0.093 | 2.36 ± 0.085
KGVYLILSEILCQINKC [YML103C/NUP188] | 1.86 ± 0.055 | 1.56 ± 0.047 | 2.23 ± 0.075 | 1.88 ± 0.032
ISSAKLDKFTDGGLFTL [QCR2] | 2.42 ± 0.13 | 3.06 ± 0.15 | 3.23 ± 0.088 | 3.21 ± 0.14
RQFSNEEVNRCYLRWQH [SNF2] | 2.83 ± 0.081 | 2.78 ± 0.08 | 2.95 ± 0.086 | 3.01 ± 0.071
TSEMKVLSIPPANHLQS [YGL100W/SEH1] | 2.64 ± 0.067 | 2.15 ± 0.076 | 2.39 ± 0.081 | 2.56 ± 0.05
ILLEPIYEVDITVHAPL [SNU114] | 2.57 ± 0.049 | 2.56 ± 0.06 | 2.43 ± 0.085 | 2.47 ± 0.046
AKEELNGLKDQLNEERS [YIL149C/MLP2] | 3.3 ± 0.14 | 3.42 ± 0.17 | 3.19 ± 0.075 | 3.41 ± 0.15
LGLKLACLGNDGILRLY [YGL100W/SEH1] | 1.78 ± 0.056 | 1.75 ± 0.05 | 1.86 ± 0.057 | 1.72 ± 0.034
PAIPPVIDLEKIKFDES [BRR2] | 2.85 ± 0.093 | 2.84 ± 0.093 | 2.67 ± 0.086 | 2.77 ± 0.082
KFPETSYPILNESSTFL [SIN4] | 2.47 ± 0.04 | 2.71 ± 0.034 | 2.58 ± 0.042 | 2.64 ± 0.032
GTQQSNMYTSTQKTELE [SIR4] | 2.96 ± 0.049 | 3.12 ± 0.047 | 2.95 ± 0.048 | 3 ± 0.053
FKSLIDEDLLDTQTFSV [YGL172W/NUP49] | 3.17 ± 0.17 | 3.05 ± 0.25 | – | 3.76 ± 0.26
KAANFIQNQSPQFNSPY [SWI1] | 1.99 ± 0.061 | 1.71 ± 0.046 | 2.37 ± 0.065 | 2.42 ± 0.058
FLNTPNNNINENELFND [SSN2] | 2.94 ± 0.059 | 3.06 ± 0.05 | 2.86 ± 0.054 | 2.88 ± 0.055
PNDSNDEKVTILVDSLT [SWI1] | 2.67 ± 0.057 | 2.81 ± 0.065 | 3.01 ± 0.071 | 3.06 ± 0.042
ILINTARIHAQNYLKTY [PRE9] | 2.01 ± 0.085 | 1.78 ± 0.073 | 2.55 ± 0.17 | 1.89 ± 0.06
DEPDEQGNPKKRPGKLS [CYT1] | – | 3.45 ± 0.15 | 3.24 ± 0.16 | 3.44 ± 0.089

Sequence | protein stability index (doa10∆) | protein stability index (pdr5∆) | protein stability index (san1∆) | protein stability index (ubr1∆)
KERLVRDKKEKKQAQKQ [SMB1] | 3.25 ± 0.097 | 3.21 ± 0.086 | 2.82 ± 0.14 | 3.3 ± 0.086
SQSLGVSNKFEKIFHYG [PUP3] | 3.47 ± 0.13 | 3.5 ± 0.17 | 2.95 ± 0.13 | 3.61 ± 0.14
STTMDGANDLGFTASVS [MED1] | 3.08 ± 0.092 | 3.1 ± 0.061 | 3.07 ± 0.072 | 2.99 ± 0.081
TLESLENLVVADLESFA [COR1] | 2.47 ± 0.066 | 2.67 ± 0.063 | 2.44 ± 0.065 | 2.3 ± 0.043
GNDNNSDSNANAAVAGV [SWI3] | 3.21 ± 0.057 | 3.35 ± 0.056 | 3.31 ± 0.029 | 3.18 ± 0.058
YNLRSLNLINAKLWFYI [RPN3] | 1.32 ± 0.046 | 1.24 ± 0.051 | 1.38 ± 0.083 | 1.48 ± 0.054
QPQHPHYVSTSKISQMA [YLR018C/POM34] | 1.71 ± 0.037 | 2.17 ± 0.04 | 2.34 ± 0.048 | 2.19 ± 0.026
GNVFSPIDNNIIFASTK [SNU114] | 3.16 ± 0.062 | 2.97 ± 0.092 | 2.97 ± 0.052 | 2.95 ± 0.046
VDTGLQPQHPHYVSTSK [YLR018C/POM34] | 2.38 ± 0.05 | 2.77 ± 0.045 | 2.88 ± 0.05 | 2.9 ± 0.042
INLTQTYGISVVDVALK [NUT1] | 2.24 ± 0.077 | 1.91 ± 0.054 | 1.76 ± 0.1 | 2.55 ± 0.038
ENSEPPALESSPVTGDN [SNF2] | 3.3 ± 0.075 | 3.24 ± 0.073 | 3.19 ± 0.067 | 3.22 ± 0.062
QLDSKLMVFNDDTKNQD [YGR119C/NUP57] | 2.93 ± 0.062 | 2.75 ± 0.054 | 2.6 ± 0.057 | 2.91 ± 0.045
AIITDDLDTVLKKDIES [SRP72] | 1.99 ± 0.047 | 2.32 ± 0.047 | 2.43 ± 0.061 | 2.43 ± 0.049
QLFHSMSIVFGDKFSED [UBP6] | 1.62 ± 0.056 | 1.34 ± 0.06 | 1.14 ± 0.094 | 1.38 ± 0.041
AKPDARTQAGDIVSIDI [MTW1] | 3.27 ± 0.13 | 3.53 ± 0.13 | 3.55 ± 0.091 | 3.64 ± 0.098
IPIGHVHVIHFQHADNS [AAR2] | 2.86 ± 0.11 | 2.71 ± 0.073 | 2.9 ± 0.074 | 2.65 ± 0.05
ECYKQLFLTAPDSCNMQ [YCS4] | 2.42 ± 0.11 | 2.21 ± 0.16 | 2.85 ± 0.12 | 2.5 ± 0.083
HTQANEPNSAKKIRFLQ [RGR1] | 2.98 ± 0.24 | 3.51 ± 0.11 | 3.12 ± 0.22 | 3.33 ± 0.18
AIALAVRLGEEDMIRSV [RPN1] | 3.42 ± 0.14 | 3.4 ± 0.13 | 3.39 ± 0.1 | 3.39 ± 0.14
QVPQVRSMSGQPPTNVQ [SNF5] | 2.81 ± 0.05 | 3.03 ± 0.042 | 3.06 ± 0.037 | 2.95 ± 0.035
TSDLVKSLGLKLPLSVI [RPS17A] | 1.12 ± 0.07 | 1.52 ± 0.078 | 1.86 ± 0.16 | 1.95 ± 0.091
LWDIMGDRQRLGEEHPL [RPT1] | – | – | 3.31 ± 0.23 | –
EHGLQITHTENYNDLIV [BRN1] | 3.5 ± 0.27 | 2.81 ± 0.18 | – | 2.77 ± 0.089
SSVKTCFKPMSLTSKRL [RIP1] | 3.02 ± 0.063 | 3.04 ± 0.063 | 2.85 ± 0.047 | 2.62 ± 0.033
RRMAFKPFGSAKSDETK [YLR335W/NUP2] | 2.75 ± 0.073 | 2.74 ± 0.063 | 2.88 ± 0.058 | 2.08 ± 0.054
NNGDKDHLKLVSLFSNL [YIL149C/MLP2] | 2.42 ± 0.09 | 2.67 ± 0.19 | 2.5 ± 0.26 | 2.44 ± 0.096
TAVVNNAAPANVTGGKA [SWI1] | 2.64 ± 0.038 | 1.98 ± 0.04 | 2.37 ± 0.093 | 2.66 ± 0.037
